Source: patent US20110195900A1, “PEPTIDIC PTH RECEPTOR AGONISTS” (FERRING B.V., priority 2008, published 2011)
Non-standard residues stand in square brackets, D forms with d. Residues, ends and D or L forms follow the SMILES beside them. No end group written: not given here. 1Nal = N[C@@H](Cc1cccc2ccccc12)C(=O)O; 2Nal = N[C@@H](Cc1ccc2ccccc2c1)C(=O)O; β3hI = CC[C@H](C)[C@H](N)CC(=O)O; β3hR = N=C(N)NCCC[C@H](N)CC(=O)O; Nle = CCCC[C@H](N)C(=O)O; β3hA = C[C@H](N)CC(=O)O; Aib = CC(C)(N)C(=O)O; βAla = NCCC(=O)O

Tests used:
human PTH-1 receptor = molecular target: T1, human PTH-1 receptor (Homo sapiens, UniProt Q03431); experiment: Reporter gene assay (CRE-luciferase) for agonist activity in transiently transfected HEK-293 cells; format: cell-based; conditions: Table 4 comparison data
T1 construct: expressed in transfected cells; host or cells: HEK-293
T1 sequence (Q03431 27-593): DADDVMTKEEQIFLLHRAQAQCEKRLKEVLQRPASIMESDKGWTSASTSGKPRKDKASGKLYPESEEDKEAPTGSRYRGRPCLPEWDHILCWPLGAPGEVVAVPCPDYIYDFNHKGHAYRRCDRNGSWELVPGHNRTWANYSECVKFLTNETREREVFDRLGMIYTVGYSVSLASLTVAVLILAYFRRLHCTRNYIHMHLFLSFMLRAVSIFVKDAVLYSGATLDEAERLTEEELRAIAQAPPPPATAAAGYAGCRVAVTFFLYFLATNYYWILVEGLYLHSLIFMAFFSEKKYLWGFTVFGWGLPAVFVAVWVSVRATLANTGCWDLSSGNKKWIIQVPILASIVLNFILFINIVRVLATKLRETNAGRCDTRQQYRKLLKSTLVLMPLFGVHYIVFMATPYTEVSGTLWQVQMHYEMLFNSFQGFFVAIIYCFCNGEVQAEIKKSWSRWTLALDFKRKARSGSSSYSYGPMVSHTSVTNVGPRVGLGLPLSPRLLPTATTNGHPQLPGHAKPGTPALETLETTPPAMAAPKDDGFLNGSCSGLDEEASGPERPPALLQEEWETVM
Outline: (§1)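 HEK-293 cells transiently transfected with SV40-driven human PTH-1 receptor and CRE-luciferase reporter, exposed to serial compound dilutions for 4-5 h, then lysed for luciferase readout; efficacy and EC50 by non-linear regression, PTH (1-34) as internal control, n≥3. Selectivity measured in analogous human PTH-2 receptor luciferase reporter assays.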

human PTH-2 receptor = molecular target: T2, human PTH-2 receptor (Homo sapiens, UniProt P49190); experiment: Luciferase-based transcriptional reporter gene assay for selectivity; format: cell-based; conditions: Table 4 comparison data; luciferase reporter gene assay; read-out: hPTHR-2 EC50
T2 construct: expressed in transfected cells
T2 sequence (P49190 25-550): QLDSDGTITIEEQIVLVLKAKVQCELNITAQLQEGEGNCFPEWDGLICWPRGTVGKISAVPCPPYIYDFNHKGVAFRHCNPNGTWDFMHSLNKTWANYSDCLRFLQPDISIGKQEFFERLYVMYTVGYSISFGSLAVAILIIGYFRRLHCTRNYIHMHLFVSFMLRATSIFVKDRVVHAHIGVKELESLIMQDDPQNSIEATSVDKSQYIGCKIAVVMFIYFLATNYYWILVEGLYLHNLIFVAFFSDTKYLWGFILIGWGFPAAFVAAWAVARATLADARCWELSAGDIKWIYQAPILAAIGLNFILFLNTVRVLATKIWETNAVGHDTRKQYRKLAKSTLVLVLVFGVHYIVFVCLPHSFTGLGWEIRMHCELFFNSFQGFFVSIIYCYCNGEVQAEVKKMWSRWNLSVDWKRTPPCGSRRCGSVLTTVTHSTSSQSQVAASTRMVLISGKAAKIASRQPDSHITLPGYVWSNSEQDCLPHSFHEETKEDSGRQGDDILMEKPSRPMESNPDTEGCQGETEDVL
Outline: as §1

[1] = molecular target: human parathyroid hormone receptor 2 (human, UniProt P49190); experiment: cell-based or functional assay
[2] = molecular target: human parathyroid hormone receptor 1 (human, UniProt Q03431); experiment: cell-based or functional assay

Molecule | EC50 (human PTH-1 receptor; HEK-293 cells, CRE-luciferase, read-out: hPTHR-1 EC50) | Selectivity hPTHR-2/hPTHR-1 (human PTH-1 receptor; ratio of EC50 values) | EC50 (human PTH-2 receptor) | hPTHR-2 EC50 (nM), luciferase reporter gene assay [1] | hPTHR-1 EC50 (nM), CRE-luciferase reporter gene assay [2]
CCCC[C@H](NC(=O)CCNC(=O)[C@H](CC(N)=O)NC(=O)[C@H](CC(C)C)NC(=O)[C@H](Cc1c[nH]cn1)NC(=O)[C@H](CCCCN)NC(=O)CNC(=O)[C@H](CC(C)C)NC(=O)[C@H](CC(N)=O)NC(=O)[C@H](Cc1c[nH]cn1)NC(=O)[C@H](CCCC)NC(=O)[C@H](CC(C)C)NC(=O)[C@H](CCC(N)=O)NC(=O)[C@@H](NC(=O)[C@H](CCC(=O)O)NC(=O)[C@H](CO)NC(=O)[C@@H](NC(=O)C(C)(C)N)C(C)C)[C@@H](C)CC)C(=O)N[C@@H](CCC(=O)O)C(=O)N[C@@H](CCCNC(=N)N)C(=O)N[C@H](C(=O)N[C@@H](CCC(=O)O)C(=O)N[C@@H](Cc1cccc2ccccc12)C(=O)N[C@@H](CC(C)C)C(=O)N[C@@H](CCCNC(=N)N)C(=O)N[C@@H](CCCCN)C(=O)N[C@@H](CCCCN)C(=O)N[C@@H](CC(C)C)C(=O)N[C@@H](CCC(N)=O)C(=O)N[C@@H](CC(=O)O)C(=O)N[C@H](C(=O)N[C@@H](Cc1c[nH]cn1)C(=O)N[C@@H](CC(N)=O)C(=O)N[C@@H](Cc1ccccc1)C(N)=O)C(C)C)C(C)C [SEQ ID NO: 55, [Aib^1, Nle^8,18, β-Ala^17,1-Nal^23] hPTH (1-34)-NH2] (H-[Aib]VSEIQL[Nle]HNLGKHLN[βAla][Nle]ERVE[1Nal]LRKKLQDVHNF-NH2) | 0.22 nM | 213 | 46 nM | – | –
[Aib]VSEIQL[Nle]HNLGKHLN[βAla][Nle]ERVE[1Nal]LRKKLQDVHNF-NH2 (N-terminus assumed; SMILES CCCC[C@H](NC(=O)CCNC(=O)[C@H](CC(N)=O)NC(=O)[C@H](CC(C)C)NC(=O)[C@H](Cc1c[nH]cn1)NC(=O)[C@H](CCCCN)NC(=O)CNC(=O)[C@H](CC(C)C)NC(=O)[C@H](CC(N)=O)NC(=O)[C@H](Cc1c[nH]cn1)NC(=O)[C@H](CCCC)NC(=O)[C@H](CC(C)C)NC(=O)[C@H](CCC(N)=O)NC(=O)[C@@H](NC(=O)[C@H](CCC(=O)O)NC(=O)[C@H](CO)NC(=O)[C@@H](NC(=O)C(C)(C)N)C(C)C)[C@@H](C)CC)C(=O)N[C@@H](CCC(=O)O)C(=O)N[C@@H](CCCNC(=N)N)C(=O)N[C@H](C(=O)N[C@@H](CCC(=O)O)C(=O)N[C@@H](Cc1cccc2ccccc12)C(=O)N[C@@H](CC(C)C)C(=O)N[C@@H](CCCNC(=N)N)C(=O)N[C@@H](CCCCN)C(=O)N[C@@H](CCCCN)C(=O)N[C@@H](CC(C)C)C(=O)N[C@@H](CCC(N)=O)C(=O)N[C@@H](CC(=O)O)C(=O)N[C@H](C(=O)N[C@@H](Cc1c[nH]cn1)C(=O)N[C@@H](CC(N)=O)C(=O)N[C@@H](Cc1ccccc1)C(N)=O)C(C)C)C(C)C) [[Aib^1, Nle^8,18, β-Ala^17, 1-Nal^23] hPTH (1-34)-NH2] | – | – | – | 46 nM | 0.22 nM
SVSEIQL[Nle]HNLGKHLNS[β3hR]ERVE[2Nal]LRKKLQDVHNF-NH2 (N-terminus assumed; SMILES CCCC[C@H](NC(=O)[C@H](CC(C)C)NC(=O)[C@H](CCC(N)=O)NC(=O)[C@@H](NC(=O)[C@H](CCC(=O)O)NC(=O)[C@H](CO)NC(=O)[C@@H](NC(=O)[C@@H](N)CO)C(C)C)[C@@H](C)CC)C(=O)N[C@@H](Cc1c[nH]cn1)C(=O)N[C@@H](CC(N)=O)C(=O)N[C@@H](CC(C)C)C(=O)NCC(=O)N[C@@H](CCCCN)C(=O)N[C@@H](Cc1c[nH]cn1)C(=O)N[C@@H](CC(C)C)C(=O)N[C@@H](CC(N)=O)C(=O)N[C@@H](CO)C(=O)N[C@@H](CCCNC(=N)N)CC(=O)N[C@@H](CCC(=O)O)C(=O)N[C@@H](CCCNC(=N)N)C(=O)N[C@H](C(=O)N[C@@H](CCC(=O)O)C(=O)N[C@@H](Cc1ccc2ccccc2c1)C(=O)N[C@@H](CC(C)C)C(=O)N[C@@H](CCCNC(=N)N)C(=O)N[C@@H](CCCCN)C(=O)N[C@@H](CCCCN)C(=O)N[C@@H](CC(C)C)C(=O)N[C@@H](CCC(N)=O)C(=O)N[C@@H](CC(=O)O)C(=O)N[C@H](C(=O)N[C@@H](Cc1c[nH]cn1)C(=O)N[C@@H](CC(N)=O)C(=O)N[C@@H](Cc1ccccc1)C(N)=O)C(C)C)C(C)C) [[Nle^8, β-hArg^18, 2-Nal^23] hPTH (1-34)-NH2] | – | – | – | 36 nM | 0.24 nM
SVSEIQL[Nle]HNLGKHLNS[β3hA]ERVE[2Nal]LRKKLQDVHNF-NH2 (N-terminus assumed; SMILES CCCC[C@H](NC(=O)[C@H](CC(C)C)NC(=O)[C@H](CCC(N)=O)NC(=O)[C@@H](NC(=O)[C@H](CCC(=O)O)NC(=O)[C@H](CO)NC(=O)[C@@H](NC(=O)[C@@H](N)CO)C(C)C)[C@@H](C)CC)C(=O)N[C@@H](Cc1c[nH]cn1)C(=O)N[C@@H](CC(N)=O)C(=O)N[C@@H](CC(C)C)C(=O)NCC(=O)N[C@@H](CCCCN)C(=O)N[C@@H](Cc1c[nH]cn1)C(=O)N[C@@H](CC(C)C)C(=O)N[C@@H](CC(N)=O)C(=O)N[C@@H](CO)C(=O)N[C@@H](C)CC(=O)N[C@@H](CCC(=O)O)C(=O)N[C@@H](CCCNC(=N)N)C(=O)N[C@H](C(=O)N[C@@H](CCC(=O)O)C(=O)N[C@@H](Cc1ccc2ccccc2c1)C(=O)N[C@@H](CC(C)C)C(=O)N[C@@H](CCCNC(=N)N)C(=O)N[C@@H](CCCCN)C(=O)N[C@@H](CCCCN)C(=O)N[C@@H](CC(C)C)C(=O)N[C@@H](CCC(N)=O)C(=O)N[C@@H](CC(=O)O)C(=O)N[C@H](C(=O)N[C@@H](Cc1c[nH]cn1)C(=O)N[C@@H](CC(N)=O)C(=O)N[C@@H](Cc1ccccc1)C(N)=O)C(C)C)C(C)C) [[Nle^8, β-hAla^18, 2-Nal^23] hPTH (1-34)-NH2] | – | – | – | 73 nM | 0.34 nM
SVSEIQL[Nle]HNLGKHLNS[β3hI]ERVE[2Nal]LRKKLQDVHNF-NH2 (N-terminus assumed; SMILES CCCC[C@H](NC(=O)[C@H](CC(C)C)NC(=O)[C@H](CCC(N)=O)NC(=O)[C@@H](NC(=O)[C@H](CCC(=O)O)NC(=O)[C@H](CO)NC(=O)[C@@H](NC(=O)[C@@H](N)CO)C(C)C)[C@@H](C)CC)C(=O)N[C@@H](Cc1c[nH]cn1)C(=O)N[C@@H](CC(N)=O)C(=O)N[C@@H](CC(C)C)C(=O)NCC(=O)N[C@@H](CCCCN)C(=O)N[C@@H](Cc1c[nH]cn1)C(=O)N[C@@H](CC(C)C)C(=O)N[C@@H](CC(N)=O)C(=O)N[C@@H](CO)C(=O)N[C@H](CC(=O)N[C@@H](CCC(=O)O)C(=O)N[C@@H](CCCNC(=N)N)C(=O)N[C@H](C(=O)N[C@@H](CCC(=O)O)C(=O)N[C@@H](Cc1ccc2ccccc2c1)C(=O)N[C@@H](CC(C)C)C(=O)N[C@@H](CCCNC(=N)N)C(=O)N[C@@H](CCCCN)C(=O)N[C@@H](CCCCN)C(=O)N[C@@H](CC(C)C)C(=O)N[C@@H](CCC(N)=O)C(=O)N[C@@H](CC(=O)O)C(=O)N[C@H](C(=O)N[C@@H](Cc1c[nH]cn1)C(=O)N[C@@H](CC(N)=O)C(=O)N[C@@H](Cc1ccccc1)C(N)=O)C(C)C)C(C)C)[C@@H](C)CC) [[Nle^8, β-hIle^18, 2-Nal^23] hPTH (1-34)-NH2] | – | – | – | 42 nM | 0.25 nM
